Test results reported in the supplement of paper PMC11908140.

B1: library; numbered along this chain (parent)
chain: MRKPRAAVGSGHRKQAASQEGRQKHAKNNSQAKPSACDGLARQPEEVVLQASVSSYHLFRDVAEVTAFRGSLLSWYDQEKRDLPWRRRAEDEMDLDRRAYAVWVSEVMLQQTQVATVINYYTGWMQKWPTLQDLASASLEEVNQLWAGLGYYSRGRRLQEGARKVVEELGGHMPRTAETLQQLLPGVGRYTAGAIASIAFGQATGVVDGNVARVLCRVRAIGADPSSTLVSQQLWGLAQQLVDPARPGDFNQAAMELGATVCTPQRPLCSQCPVESLCRARQRVEQEQLLASGSLSGSPDVEECAPNTGQCHLCLPPSEPWDQTLGVVNFPRKASRKPPREESSATCVLEQPGALGAQILLVQRPNSGLLAGLWEFPSVTWEPSEQLQRKALLQELQRWAGPLPATHLRHLGEVVHTFSHIKLTYQVYGLALEGQTPVTTVPPGARWLTQEEFHTAAVSTAMKKVFRVYQGQQPGTCMGSKRSQVSSPCSRKKPRMGQQVLDNFFRSHISTDAHSLNSAAQ

Variants of: B1
Experiment: 8OG:A repair function score (normalized; synonymous = 0, nonsense = -1) (normalized log-likelihood score); higher = more repair activity (WT-like)
Conditions: with 8OG:A DNA repair reporter (GFP) in HEK-293 MUTYH KO cells
Outline: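 Lentiviral MUTYH cDNA NNN codon-scan libraries in HEK-293 MUTYH knockout cells (10 pg/ml doxycycline) were co-transfected with an 8OG:A GFP repair reporter plus mCherry. At 72 h, viable mCherry+ cells were sorted into GFP+ (repair) and GFP− bins, three replicates per tile, then tile amplicons were sequenced. Per-tile Rosace fitness scores became a normalized repair function score anchored on synonymous and nonsense distributions. Synonymous medians were set to 0 and nonsense to -1; variants under 300 counts per million at the start were removed.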

Which “8OG:A repair function score” value does the source give for E341S here?
Its value is -0.0269.

For E341Q, which “8OG:A repair function score” value is on record?
The value was -0.0264.

For E341C, which “8OG:A repair function score” value is on record?
Its value is -0.0275.

How did the “8OG:A repair function score” value turn out when E341G was run?
The value was -0.208.

How did the “8OG:A repair function score” value turn out when E341Y was run?
The value was -0.00525.

How did the “8OG:A repair function score” value turn out when E341T was run?
The value was 0.0246.

For E341N, which “8OG:A repair function score” value is on record?
The value was -0.0613.

How did the “8OG:A repair function score” value turn out when E341V was run?
Its value is -0.0649.

How did the “8OG:A repair function score” value turn out when E341W was run?
The value was 0.0472.

With E341D as the variant, how does the “8OG:A repair function score” value read?
The value was -0.0128.

How did the “8OG:A repair function score” value turn out when E341L was run?
The value was -0.00796.

How did the “8OG:A repair function score” value turn out when E341H was run?
Its value is 0.0806.

For E341I, which “8OG:A repair function score” value is on record?
The value was -0.0537.

Which “8OG:A repair function score” value does the source give for E341A here?
The value was 0.0808.

With E341F as the variant, how does the “8OG:A repair function score” value read?
Its value is -0.0534.

With E341R as the variant, how does the “8OG:A repair function score” value read?
The value was 0.0117.

Which “8OG:A repair function score” value does the source give for E341K here?
Its value is -0.0881.

Which “8OG:A repair function score” value does the source give for A345C here?
The value was 0.0391.

Which “8OG:A repair function score” value does the source give for A345G here?
Its value is -0.243.

How did the “8OG:A repair function score” value turn out when A345F was run?
Its value is -0.165.

For A345D, which “8OG:A repair function score” value is on record?
Its value is -0.542.

A345E was tested. Which “8OG:A repair function score” value did it give?
Its value is -0.567.

A345H was tested. Which “8OG:A repair function score” value did it give?
The value was -0.107.

A345I was tested. Which “8OG:A repair function score” value did it give?
The value was 0.0369.

A345K was tested. Which “8OG:A repair function score” value did it give?
Its value is -0.499.

For A345M, which “8OG:A repair function score” value is on record?
The value was -0.102.

A345L was tested. Which “8OG:A repair function score” value did it give?
Its value is -0.04.

For E342N, which “8OG:A repair function score” value is on record?
Its value is 0.0275.

With E342A as the variant, how does the “8OG:A repair function score” value read?
The value was -0.0199.

For E342T, which “8OG:A repair function score” value is on record?
Its value is -0.0198.

How did the “8OG:A repair function score” value turn out when E342I was run?
Its value is -0.00523.

For E342G, which “8OG:A repair function score” value is on record?
The value was -0.00875.

E342Q was tested. Which “8OG:A repair function score” value did it give?
The value was 0.0267.

How did the “8OG:A repair function score” value turn out when E342W was run?
Its value is -0.279.

With E342H as the variant, how does the “8OG:A repair function score” value read?
The value was 0.0491.

How did the “8OG:A repair function score” value turn out when E342R was run?
Its value is 0.0113.

With E342Y as the variant, how does the “8OG:A repair function score” value read?
The value was -0.0601.

E342P was tested. Which “8OG:A repair function score” value did it give?
Its value is -0.298.

Which “8OG:A repair function score” value does the source give for E342V here?
Its value is -0.0483.

For E342M, which “8OG:A repair function score” value is on record?
Its value is 0.0246.

For E342F, which “8OG:A repair function score” value is on record?
Its value is -0.0595.

Which “8OG:A repair function score” value does the source give for E342C here?
The value was 0.0508.

How did the “8OG:A repair function score” value turn out when E342K was run?
Its value is 0.0199.

For E342S, which “8OG:A repair function score” value is on record?
Its value is -0.0341.

How did the “8OG:A repair function score” value turn out when E342D was run?
The value was 0.0832.

For E342L, which “8OG:A repair function score” value is on record?
Its value is 0.0472.

With P338H as the variant, how does the “8OG:A repair function score” value read?
Its value is -0.0311.

How did the “8OG:A repair function score” value turn out when P338C was run?
The value was -0.0613.

P338V was tested. Which “8OG:A repair function score” value did it give?
The value was -0.0391.

With P338L as the variant, how does the “8OG:A repair function score” value read?
Its value is -0.061.

How did the “8OG:A repair function score” value turn out when P338T was run?
Its value is -0.0578.

How did the “8OG:A repair function score” value turn out when P338D was run?
Its value is -0.0378.

Which “8OG:A repair function score” value does the source give for P338K here?
The value was 0.0337.

How did the “8OG:A repair function score” value turn out when P338Y was run?
The value was -0.0269.

P338A was tested. Which “8OG:A repair function score” value did it give?
The value was -0.066.

With P338N as the variant, how does the “8OG:A repair function score” value read?
Its value is -0.066.

Which “8OG:A repair function score” value does the source give for P338S here?
The value was -0.0346.

With P338Q as the variant, how does the “8OG:A repair function score” value read?
Its value is -0.00645.

How did the “8OG:A repair function score” value turn out when P338R was run?
The value was 0.00053.

For P338G, which “8OG:A repair function score” value is on record?
The value was -0.0299.

How did the “8OG:A repair function score” value turn out when P338M was run?
The value was 0.0756.

How did the “8OG:A repair function score” value turn out when P338E was run?
The value was -0.133.

With P338W as the variant, how does the “8OG:A repair function score” value read?
The value was 0.053.

Which “8OG:A repair function score” value does the source give for P338I here?
Its value is -0.0572.

With P338F as the variant, how does the “8OG:A repair function score” value read?
The value was -0.101.

How did the “8OG:A repair function score” value turn out when S343I was run?
The value was -0.0485.

Which “8OG:A repair function score” value does the source give for S343P here?
Its value is -0.144.

With S343Q as the variant, how does the “8OG:A repair function score” value read?
Its value is -0.144.

With S343A as the variant, how does the “8OG:A repair function score” value read?
The value was 0.0302.

S343R was tested. Which “8OG:A repair function score” value did it give?
The value was 0.0819.

Which “8OG:A repair function score” value does the source give for S343N here?
The value was -0.0331.

S343G was tested. Which “8OG:A repair function score” value did it give?
Its value is -0.00518.

With S343V as the variant, how does the “8OG:A repair function score” value read?
Its value is 0.0196.

For S343F, which “8OG:A repair function score” value is on record?
The value was -0.0296.

For S343L, which “8OG:A repair function score” value is on record?
The value was -0.124.

With S343M as the variant, how does the “8OG:A repair function score” value read?
The value was 0.0865.

For S343H, which “8OG:A repair function score” value is on record?
Its value is 0.00619.

For S343C, which “8OG:A repair function score” value is on record?
The value was 0.00733.

How did the “8OG:A repair function score” value turn out when S343D was run?
Its value is 0.0576.

Which “8OG:A repair function score” value does the source give for S343W here?
The value was -0.0714.

For S343E, which “8OG:A repair function score” value is on record?
Its value is -0.015.

Which “8OG:A repair function score” value does the source give for S343Y here?
The value was 0.129.

With S343T as the variant, how does the “8OG:A repair function score” value read?
Its value is -0.0419.

With S343K as the variant, how does the “8OG:A repair function score” value read?
The value was 0.133.
